The values below come from patent US20250066510A1 (Janssen / Centocor, published 2025).

In test [1] the target is T1, human GUCY2C (guanylyl cyclase C) (human, UniProt P25092 24-1073). Description: cell-based or functional assay.
Test [2] addresses T1, human GUCY2C (guanylyl cyclase C). Description: flow cytometry on T84 cells. The method, then: One hour cell binding studies by flow cytometry were carried out at physiologically relevant temperature (37° C.) on GUCY2CxCD3 bispecific antibodies (GUCY2CxCD3 biAb-1 and GUCY2CxCD3_biAb-2), known reference GUCY2CxCD3 bispecific antibody (biAb), and Null×CD3 control molecules. The goal was to characterize and quantify specific, cell binding for GUCY2CxCD3_biAb-1 and 2. […] Maximum binding of GUCY2CxCD3 biAb-1 and 2 was higher than reference biAb.
(Flow cytometry measures light scatter and fluorescence of single cells or particles in a stream.)

For test [3], the target named is T2, human CD3 (human, UniProt P07766 23-207).
T2 construct: also called CD3 epsilon; CD3 on primary human T cells
Description: flow cytometry on primary T cells.

For test [4], the target named is T1, human GUCY2C (guanylyl cyclase C). Description: flow cytometry on CHO-huGUCY2C cells. The method, then: Three (3) cell lines, Chinese hamster ovary (CHO) cell line, CHO transfected with cyno GUCY2C, and CHO transfected with human GUCY2C, were incubated with a titrating dose of GUCY2C_mAb for 60 min at 37° C., washed twice, then incubated with AF647 labeled anti human secondary for 30 minutes at 4° C. Cells were washed twice again, resuspended and acquired in a flow cytometer. Specific antibody binding was assessed in the RL1H channel for each cell line. Data presented as signal/background where background is secondary only.

Test [5] deals with T2, human CD3. Description: flow cytometry based Intellicyt assay on human pan T cells, MFI, 4PL fit; lower end of the printed range 108-112 nM. As to the method:
The affinity of CD3_spFv-1 to T cells was measured by flow cytometry based Intellicyt assay. Briefly, pan T cells were isolated from PBMC from healthy donors. Cells were incubated with titrating amounts test molecules for 1 hour, then washed. […] Cells were then washed and resuspended in 0.10% pluronic acid containing Sytox Green, then immediately analyzed in a flow cytometer. Median fluorescent intensity (MFI) was recorded (on RL1-A). The log 10 of the molecule concentration was plotted against the MFI. Best fit curves were evaluated using a 4PL algorithm (log(agonist) vs. response—Variable slope) in GraphPad Prism 9.0.

Test [6] concerns the target T3, cynomolgus monkey CD3 (cynomolgus monkey, UniProt Q95LI5 22-198).
T3 construct: whole, on cells; also called cynomolgus CD3
Description: not described at this place; the sentence refers to 'example 2'.

T1 sequence (P25092 other isoform, or with tags, fused parts or gaps limits assumed): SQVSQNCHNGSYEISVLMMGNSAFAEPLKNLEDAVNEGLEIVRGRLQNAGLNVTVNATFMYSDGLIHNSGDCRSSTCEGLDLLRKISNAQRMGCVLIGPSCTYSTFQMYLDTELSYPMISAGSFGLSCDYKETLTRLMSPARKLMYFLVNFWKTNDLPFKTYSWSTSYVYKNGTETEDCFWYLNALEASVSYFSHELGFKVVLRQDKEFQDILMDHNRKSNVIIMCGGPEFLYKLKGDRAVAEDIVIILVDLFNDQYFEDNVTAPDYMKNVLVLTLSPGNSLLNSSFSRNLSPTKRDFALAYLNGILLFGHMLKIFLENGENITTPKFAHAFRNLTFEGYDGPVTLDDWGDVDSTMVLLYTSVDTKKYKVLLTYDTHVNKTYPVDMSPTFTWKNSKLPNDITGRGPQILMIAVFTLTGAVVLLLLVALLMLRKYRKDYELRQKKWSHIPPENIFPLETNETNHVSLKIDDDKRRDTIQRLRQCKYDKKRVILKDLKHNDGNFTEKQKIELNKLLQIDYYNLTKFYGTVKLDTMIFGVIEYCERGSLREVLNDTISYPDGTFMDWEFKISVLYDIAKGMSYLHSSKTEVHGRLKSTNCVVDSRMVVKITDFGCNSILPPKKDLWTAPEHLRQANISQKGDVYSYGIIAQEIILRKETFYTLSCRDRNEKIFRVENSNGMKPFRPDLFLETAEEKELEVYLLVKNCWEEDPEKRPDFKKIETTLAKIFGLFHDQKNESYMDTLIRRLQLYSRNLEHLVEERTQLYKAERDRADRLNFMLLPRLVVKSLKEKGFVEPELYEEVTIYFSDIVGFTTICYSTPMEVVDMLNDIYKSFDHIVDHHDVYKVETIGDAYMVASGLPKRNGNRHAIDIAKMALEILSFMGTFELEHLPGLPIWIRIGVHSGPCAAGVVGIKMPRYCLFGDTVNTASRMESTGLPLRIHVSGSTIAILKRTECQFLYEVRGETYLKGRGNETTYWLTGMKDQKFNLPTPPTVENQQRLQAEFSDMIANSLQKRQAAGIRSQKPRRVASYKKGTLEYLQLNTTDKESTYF
T2 sequence (P07766 23-207 limits assumed): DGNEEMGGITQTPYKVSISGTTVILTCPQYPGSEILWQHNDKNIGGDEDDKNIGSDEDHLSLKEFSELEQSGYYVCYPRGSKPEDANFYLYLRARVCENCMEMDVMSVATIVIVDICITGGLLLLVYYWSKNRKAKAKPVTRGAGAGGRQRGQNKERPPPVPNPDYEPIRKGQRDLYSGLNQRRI
T3 sequence (Q95LI5 22-198): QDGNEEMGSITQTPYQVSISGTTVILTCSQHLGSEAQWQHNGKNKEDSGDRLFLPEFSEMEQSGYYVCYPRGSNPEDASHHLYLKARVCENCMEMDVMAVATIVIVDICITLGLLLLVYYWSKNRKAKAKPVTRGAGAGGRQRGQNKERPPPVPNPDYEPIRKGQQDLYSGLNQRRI

B1: GUCY2CxCD3_biAb-1 (bispecific antibody, human IgG1, kappa, L234A L235A)
heavy: QVQLQESGPGLVKPSETLSLTCTVSGASISHYYWSWIRRPAGKGLEWIGRIYTSGSTNYNPSLKSRVTVSVDTSKNQFSLKLSSVTAADTAVYYCARDRYTGYFDLWGRGTLVTVSSASTKGPSVFPLAPSSKSTSGGTAALGCLVKDYFPEPVTVSWNSGALTSGVHTFPAVLQSSGLYSLSSVVTVPSSSLGTQTYICNVNHKPSNTKVDKKVEPKSCDKTHTCPPCPAPEAAGGPSVFLFPPKPKDTLMISRTPEVTCVVVSVSHEDPEVKFNWYVDGVEVHNAKTKPREEQYNSTYRVVSVLTVLHQDWLNGKEYKCKVSNKALPAPIEKTISKAKGQPREPQVYTLPPSREEMTKNQVSLSCAVKGFYPSDIAVEWESNGQPENNYKTTPPVLDSDGSFFLVSKLTVDKSRWQQGNVFSCSVMHEALHNRFTQKSLSLSPGK
light: not shown
chain: EIVLTQSPATLSASPGERVTLSCSASSSVSYMNWYQQKPGCAPRRWIYDSSKLASGVPARFSGSGSGRDYTLTISSLEPEDFAVYYCQQWSRNPPTFGGGTKVEIKGGGSGGSGGCPPCGGSGGQVQLVQSGAEVKKPGSSVKVSCKASGYTFTRSTMHWVKQAPGQGLEWIGYINPSSAYTNYNQKFQGRVTLTADKSTSTAYMELSSLRSEDTAVYYCASPQVHYDYAGFPYWGCGTLVTVSSEPKSSDKTHTCPPCPAPEAAGGPSVFLFPPKPKDTLMISRTPEVTCVVVSVSHEDPEVKFNWYVDGVEVHNAKTKPREEQYNSTYRVVSVLTVLHQDWLNGKEYKCKVSNKALPAPIEKTISKAKGQPREPQVYTLPPSREEMTKNQVSLWCLVKGFYPSDIAVEWESNGQPENNYKTTPPVLDSDGSFFLYSKLTVDKSRWQQGNVFSCSVMHEALHNHYTQKSLSLSPGK
notes: HC1/LC1 form the GUCY2C Fab arm (IgG1, L234A/L235A/D265S, hole T366S/L368A/Y407V); HC2 is CD3_spFv-1 (VL2-linker-VH2) fused to IgG1 Fc (L234A/L235A/D265S, knob T366W); also called GUCY2CxCD3 bisp-Ab1; GUCY2C-CD3-bisp-Abl
For the molecule B1, the “Tumor killing EC50 (nM), HT-55” value in test [1] is 0.8 nM. Besides, the “Tumor killing EC50 (nM), LS1034” value in test [1] amounted to 0.04 nM. In addition, the concentration giving a half-maximal response (EC50) (commonly the concentration giving half of the maximal effect) was 12 nM in test [2] and 108 nM in test [3].

B2: GUCY2C_mAb (antibody, V domains shown)
VH: QVQLQESGPGLVKPSETLSLTCTVSGASISHYYWSWIRRPAGKGLEWIGRIYTSGSTNYNPSLKSRVTVSVDTSKNQFSLKLSSVTAADTAVYYCARDRYTGYFDLWGRGTLVTVSS
VL: not shown
notes: From Ablexis Kappa mice, so a kappa light chain; also called GUCYC2_mAb
B2: the midpoint of the response in test [4], the EC50, lay at 4.6 nM.

B3: CD3_spFv-1 (scFv)
scFv: EIVLTQSPATLSASPGERVTLSCSASSSVSYMNWYQQKPGCAPRRWIYDSSKLASGVPARFSGSGSGRDYTLTISSLEPEDFAVYYCQQWSRNPPTFGGGTKVEIKGGGSGGSGGCPPCGGSGGQVQLVQSGAEVKKPGSSVKVSCKASGYTFTRSTMHWVKQAPGQGLEWIGYINPSSAYTNYNQKFQGRVTLTADKSTSTAYMELSSLRSEDTAVYYCASPQVHYDYAGFPYWGCGTLVTVSS
notes: also called CD3 arm of GUCY2CxCD3_biAb-1; anti-CD3 spFv
Take B3: the EC50 in test [5] fell in the range of 108 to 112 nM. In addition, the binding result in test [6] was “no binding”.
